Assay: soluble on expression in E. coli; label from the status in PepcDB or PDB records

Question: Which “soluble on expression in E. coli” value does the source give for “MGSDKIHHHHHHMAKKTAVVDLGSNSIRMVIFEKTSRYGFYTTCEYKRKVRLGENAYNNGKILQEEAMQRAEDALAFFKQCALKHKCKKIFIVGTSALRDAPNSKNFIKRIKDNLSLNIRCIDGKSESYLGGLAALNLLSPFKDGTTLDIGGGSSELCLIKNNRIISCISLDIGTVRLKELFYDTGKMDSLEEFIKPILEQIPKEFCNQNLIAIGGSLRAISNSIMQKNSYPLKNLHDFRYMLDEEKGHILKIFNSNLDSLINFGIKKDRFDTIKEGIFIFLKIAEKIKAKQVITSGVGIREGVYLQDLLRPKITFPPNFNPSLKCLQDKFLQSKQKNKTPHFALQIFTTLKNLHKLNDNYKHTLLNAAKLCHIGEYLNFYFANEHSAHFVLGGLNYGFSHKEKALIASIIKLNGKKVNPYNLEPYKQLLPNIHTISWLNFILCLAKTLSANEDKIDFAFANNTLYIYQENKILNLPKDELKKIAKPATIALAINQKI” here?
Answer: The value was “not soluble”.

Question: With “MAGFVPLRWPISRMSSAVPRYIVGIDLGTTHTVVSYADGGDPSRIEPLFLEQLVAPGQVAGRPLLPSVRYHPATGELAEADTALPWPVEETAPGCRPVIGEFARQLGSRSRGRLVASAKSWLCHTGVDRTADILPWGAPDEVPKVSPVEASASFLRHVRCAWNHRFPAHPLETQDVIVTIPASFDDAARALTVEAARRAGLANVRLLEEPQAACYDFLWTYRGRLAETLEGVNLLLVCDVGGGTTDFTLIRVDAGGSEPELERIAVGNHLMLGGDNIDLTLAHRLEPRLTGAERSLSATDLILLAEQCRRAKETLLAEQGPESVTVTLLGKGGGLIGGARSVELSRHEVLEVVLDGFFPRVGADAVPERRSGVVEFGLPYAADPAITRHAAAFLIRHRNDAGGAAPDALLLNGGVFHSPVIAGRMAEVVGSWCGRTPVMLRNPRPDQAVAFGAVAFGLSRRGLAVRRIGGGSARAYYLLVGDANERSRRGVCILPRGAAEGQEWTVERRNFLLSVGRPVRFHVFSSTVDSGHAPGDLAVLDEAGFGELPPLAVALQAQEQGDVEVRLAARLTAIGTLQLQCVAVGDPEQRWDLELQLRGGGPRPTASASLHPRAAEAQEHIGLIFGKKTRQFGPKAVKTLRNDLEKILGKREDWDTALCRELYAALLEGAPHRRRSADHERLWLSLAGYCLRPGFGAPLDDWRVGQVWNLYSQGLQFVNEAQNWSEWWIVWRRIAGGLRAEAQQRLFADVAGFIDPVRARRGNAEALAKKRAFEDMVRLAASLERLSAGDKTMLGGWLVQRLDKAPDSAELWWALGRVGARAPFHGSAHNLVAREVVEDWVELALQRDWKRQGFVAFAATLLARLTGDRERDLDATLRNRVAEKLVASSAPEIWLELVTEVRGLDASDEKRIFGEGLPPGLRLVDSAWGALEHHHHHH” as the sequence, how does the “soluble on expression in E. coli” value read?
Answer: Its value is “not soluble”.

Question: For “MFAFSKGPAGSSTYDRVAQKFQDGYEKMRAAIEMDELTKHAGSIQEKLRTAELYKEARSLLKEANEFNIMDIPETRRSEIRDKRQNMMKLEKSAQDRLIAICNEVDPNVKQSRSATVGPSRPASAARVTPRPTRATAPASLPMHQNPVNRAALLNGVDKVIGERLLDEVLDNTGVRMDDVAGCHSAKAALEEAVILPALNPNLFKGLRQPVKGILLFGPPGNGKTLLAKAVAGESKQMFFNISASSLTSKWVGDSEKTIRGLFQIARNAQPSIIFIDEIDSILCERSEKDAEVSRRMKTEFLVQFDGATSSADDRILVIGATNRPHELDDAVLRRFPKRIMLNLPDEEARKELITKTLKKHNMMDGLISSDIRYIASNTSGFSNSDLVALCKEAAMVPIREIDRSKLSMTDGEKIRKIRASDFDTALRTIRPSTSQKIMSKLSDFSRSFGC”, which “soluble on expression in E. coli” value is on record?
Answer: The value was “not soluble”.

Question: Which “soluble on expression in E. coli” value does the source give for “AVSFTGVSGVKNIVAVTACPTGVAHTFMSAEAIEAYAKKQGWNVKVETRGQVGAGNEITVEEVAAADLVFVAADIDVPLDKFKGKPMYRTSTGLALKKTEQEFDKAFKEAKIF” here?
Answer: The value was “not soluble”.

Question: For “MRDMGEPKLKIVAMPSDTNPAGNIFGGWILSQIDLAGAIAARELSPERVVTISMDKVVFKEPVFIGDIISCYSKVVNVGNTSISVEVEVTAQRVDSQGCTSCINVTSALVTYVSVTRDGKKNPISEELKRIHGFLNALEHHHHHH”, which “soluble on expression in E. coli” value is on record?
Answer: Its value is “soluble”.

Question: Which “soluble on expression in E. coli” value does the source give for “MNGHISNHPSSFGMYPSQMNGYGSSPTFSQTDREHGSKTSAKALYEQRKNYARDSVSSVSDISQYRVEHLTTFVLDRKDAMITVDDGIRKLKLLDAKGKVWTQDMILQVDDRAVSLIDLESKNELENFPLNTIQHCQAVMHSCSYDSVLALVCKEPTQNKPDLHLFQCDEVKANLISEDIESAISDSKGGKQKRRPDALRMISNADPSIPPPPRAPAPAPPGTVTQVDVRSRVAAWSAWAADQGDFEKPRQYHEQEETPEMMAARIDRDVQILNHILDDIEFFITKLQKAAEAFSELSKRKKNKKGKRKGPGEGVLTLRAKPPPPDEFLDCFQKFKHGFNLLAKLKSHIQNPSAADLVHFLFTPLNMVVQATGGPELASSVLSPLLNKDTIDFLNYTVNGDERQLWMSLGGTWMKARAEWPKEQFIPPYVPRFRNGWEPPMLNFMGATMEQDLYQLAESVANVAEHQRKQEIKRLSTEHSSVSEYHPADGYAFSSNIYTRGSHLDQGEAAVAFKPTSNRHIDRNYEPLKTQPKKYAKSKYDFVARNNSELSVLKDDILEILDDRKQWWKVRNASGDSGFVPNNILDIVRPPESGLGRADPPYTHTIQKQRMEYGPRPADTPPAPSPPPTPAPVPVPLPPSTPAPVPVSKVPANITRQNSSSSDSGGSIVRDSQRHKQLPVDRRKSQMEEVQDELIHRLTIGRSAAQKKFHVPRQNVPVINITYDSTPEDVKTWLQSKGFNPVTVNSLGVLNGAQLFSLNKDELRTVCPEGARVYSQITVQKAALEDSSGSSELQEIMRRRQEKISAAASDSGVESFDEGSSH” here?
Answer: The value was “soluble”.

Question: For “MELFLTGVVLKPKGLKGELKVKPVTDFPESFLTRREYYIGKTPEDAVLRKVQSARFHQGFAWLVFEGAGSREGAEALVGCGLYVTRDALVAMPDDRAYIHELIGLDVFDETEGRVGKISDVLQMPAHDVYEVDTGDRKVLIPAVEDFITETDLEKGMVRLKRFKEFLLEHHHHHH”, which “soluble on expression in E. coli” value is on record?
Answer: The value was “soluble”.

Question: Which “soluble on expression in E. coli” value does the source give for “MPSSSPSMDESRRSAVPPKEPAGRICTVCSDRANGYNFGVLTCESCKAFFRRNASKHKEIKCPFSDSCQITSASRKFCQACRLNKCFAVGMNSEWLNDLKPKSSIVSGKFKRKKPDMKNNLKVEVDDTEEDLENDDEEQISVPKALLEKLINKANEKSKDRCTCKCQCGFYPITQRLTAYEPKDTTAVNSPQDISFSHHLHHSDSFYSSSTSTLSPMSVISCAPSSHDSSGYNTSQLVTQSPTNYTVSPASIPSSITELSPQMPSQYPPMLSPFQFGVMAQMAAPANFLNFPPMPERTWTPIQAVSTVPVTETLPPNLLEQIHSKIDKYIGVLNEDEITLLEELHVQNEPLNAPLIQWHNPKSIDGVFRIIEEALRRIVNMACQLSLFRELHVDDRKNLLKSGFGELLIVRGLMAYDKSDNSWNHSFGVRGKMEVKVEVLKNPKLEEHYKAHMNLLSTFGEDVRNNEHLMLIFNAAVIFHPHVSNLRDSKRVHSTQAKYFQMLLKLLTFEYGKSRADIAYSNLLNQVVELHRVNRTLLRVFYGLDIAQLDPLIRELCSFE” here?
Answer: Its value is “not soluble”.

Question: With “MGSDKIHHHHHHMEFEVKKTFGKARLGVMKLHHGAVETPVFMPVGTNASVKLLTPRDLEEAGAEIILSNTFHLMLKPGVEIIKLHRGLHNFMGWKRPILTDSGGFQVFSLPKIRIDDEGVVFRSPIDGSKVFLNPEISMEVQIALGSDICMVFDHCPVPDADYEEVKEATERTYRWALRSKKAFKTENQALFGIVQGGIYPDLRRESALQLTSIGFDGYAIGGLSIGEERSLTLEMTEVTVEFLPEDKPRYFMGGGSPELILELVDRGVDMFDSVFPTRIARHGTALTWNGKLNLKASYNKRSLEPVDERCGCYTCKNFTRSYIHHLFDRGEVLGQILLTIHNINFMISLMKEVRRSIESGTFKELKSKVVEVYSSGGVNV” as the sequence, how does the “soluble on expression in E. coli” value read?
Answer: The value was “soluble”.

Question: With “AHHHHHHGSKAMEFVGYKKSGKTTCVENVAKVLKKEKGYRVAIAKSMHSNFDKEETDTWKFSRIADYVIVHAQDIDGLLFKAKDVNALFSMVSADILLIEGFKSITHVPKVICAKSEEEVRELNNGLAIAVSGVIANKGIKEIDGLPVINATKEPEKLAELVEKKGFMLPNIDCGLCGYNCAEMAKLIVKGEKTVKDCVVLSSTPKVTIKIDGQVLPLKDWVQELVEKTIKGMLSAMKGYREGRKIEIVIKE” as the sequence, how does the “soluble on expression in E. coli” value read?
Answer: Its value is “soluble”.

Question: For “SLSFASSACFNEAGTMFRIEPNLIKAIALVESNLKKDSIGKNRDKKNNIKSFDYGLMQINQMHIPMLKKRGIIKDERDLLDNPCLNIKIGTEILYKHFSRCGMTWQCLGTYNAGFAMDNQKKRLQYAKKIYIVYTRLNELDNRKALA”, which “soluble on expression in E. coli” value is on record?
Answer: The value was “not soluble”.

Question: For “MEMRQPAVAGQFYPLRCENLENELKRCFEGLEIREQEVLGAVCPHAGYMYSGKVAAHVYATLPEADTYVIFGPNHTGYGSPVSVSRETWKTPLGNIDVDLELADGFLGSIVDADELGHKYEHSIEVQLPFLQYRFERDFKILPICMGMQDEETAVEVGNLLADLISESGKRAVIIASSDFTHYETAERAKEIDSEVIDSILNFDISGMYDRLYRRNASVCGYGPITAMLTASKKLGGSRATLLKYANSGDVSGDKDAVVGYAAIIVELEHHHHHH”, which “soluble on expression in E. coli” value is on record?
Answer: Its value is “soluble”.

Question: Which “soluble on expression in E. coli” value does the source give for “MACERLGGQSGAADVDAAAPAMAAVNLTLGFAGKTVLDQVSMGFPARAVTSLMGPTGSGKTTFLRTLNRMNDKVSGYRYSGDVLLGGRSIFNYRDVLEFRRRVGMLFQRPNPFPMSIMDNVLAGVRAHKLVPRKEFRGVAQARLTEVGLWDAVKDRLSDSPFRLSGGQQQLLCLARTLAVNPEVLLLDEPTSALDPTTTEKIEEFIRSLADRLTVIIVTHNLAQAARISDRAALFFDGRLVEEGPTEQLFSSPKHAETARYVAGLSGDVKDAKRGN” here?
Answer: Its value is “not soluble”.

Question: Which “soluble on expression in E. coli” value does the source give for “MTSVGVPIKILHEAEGHMVTLETVTGEVYRGKLSEAEDNMNCQLAETVVTFRDGRSHQLDNVFIRGNKIRFMILPDMLKNAPMFKNIGRAQKGAIGMGLGGLDQRGRGRGTAFRRPMGRGGPRGMSRPGGAPTFRG” here?
Answer: Its value is “not soluble”.

Question: With “MKRSSTVLAALLALLLVATNDAARHRKYRQTYQDIDSDDDDTSDVQITVFPSEKEVRDGRDVSFECRARTSDNSVYPTVRWARVGGPLPSSAHDSGGRLTINPVQLSDAGTYICVSDYNGNTVEARATLSVVSYGPQEVSNGLRQAGQCMADEKACGNNECVKNDYVCDGEPDCRDRSDEANCPAISRTCEPNEFKCNNNKCVQKMWLCDGDDDCGDNSDELNCNAKPSSSDCKPTEFQCHDRRQCVPSSFHCDGTNDCHDGSDEVGCVQPTVVDPPQTNLQVPRGTTFSLTCKAVAVPEPYINWRLNWGPVCEPPRCLQTSEGGYGTLTIHDAQPVDQGAYTCEAINVKGRVLATPDCIVRVVDDPRPQPPQPPTAPPQRASCDTRGAVTPYPNNYGTCECKSQVTGPNCDQCKPGAFHLSEKSPEGCLKCFCFGVSNDCRSSGHYRTKDRLMFAGDAEGVTISDIEERTIDRNTPFSFFKTGYLTFDGTTDGVAKYWRLPQRFLGDKVTAYGGKMEFEIEFSGSGHHSSEPMVVLKGNQNILVHRVRNQEHVLRSDSPVRITVETYETNYEQLNGAAATREDLLMVLADLDAFLIRATHVAHQTSTSLGDVSWEIAVDRYTPDGLALEVEQCVCPPGYLGTSCEDCAPGYERSGYGPYLGTCVPIQPRHQQCGPGAVAPTAPAQGQCQCKASVIGPNCDRCAPNSFGLAPTNPQGCIPCFCSGVTQQCSASSYRRTSVSIDYARGDRDQLELTTSDSRQPYSPQTRAELSGQAIEFRSFEEARGQTLYWKLPEKFLGDKVTSYGGTLEYTFKFSGNGNSDQSADVILRGNDIALQYKHREPFYADRENKVQIKIIETSWQRVDGQQATREHLLMTLADLDTLLIKSTYNDDCTDSQLLSANLEFAEPYGQGLTAAEVEQCICPPGYVGTSCEDCAPGYSRTGGGLYLGLCEKCECNGHASQCDKEYGYCLDCQHNTEGDQCERCKPGFVGDARRGTPNDCQPEATRAPCHCNNHSPRGCDSFGRCLLCEHNTEGTHCERCKKGYYGDATKGSPYDCTPCPCPGASDCYLDNEGQVACRICPAGLQGRLCNECAPGYTRSNKPAGRVCEPIGQVTNEDITFVQKPHEGDFARNSPSQNSSGQRRHRRRRIRVRSRFYHH” as the sequence, how does the “soluble on expression in E. coli” value read?
Answer: The value was “not soluble”.

Reference: the DeepSol protein solubility set
